23 molecules from US20210261671A1 (HARPOON THERAPEUTICS, published 2021) can be followed below.

The term Kd denotes a measure of binding affinity in units of concentration.

B1: biotinylated cynomolgus FLT3 protein (receptor, cynomolgus monkey)
chain: NQDLPVIKCVLINHKNNDSSVGKSSSYPMVSESPEDLGCALRPQSAGTVYEAATVEVDVSASITLQVLVDTPGNISCLWVFKHSSLNCQPHFDVQNRGVVSMVILKMTETQAGEYLLFIQSEATNYTIVFTVSIRNTLLFTLRRPYFRKMENQDALVCISESVPEPIVEWVLCDSQGESCKEESPAVVKKEEKVLHELFGTDIRCCARNELGRECTRLFTIDLNQTPQTTLPQLFLKVGEPLWIRCKAVHVNHGFGLTWELENKALEEGSYFEMSTYSTNRTMIRILFAFVSSVARNDTGYYTCSSSKHPSQSALVTIVEKGFINATNSSEDYEIDQYEEFCFSVRFKAYPQIRCTWTFSRKAFPCEQKALDDGYSVSKFCNHKHQPGEYIFHAENGDAQFTKMFTLNIRRKPQVLAEASASQASCSSDGYPLPSWTWKKCSDKSPNCTEDIPEGVWNRKANRKVFGQWVSSSTLNMSEAMKGFLVKCCAYNSLGTSCETILLNSPGPFPFIQDS
modifications: biotinylated (sites not given)
notes: loaded on streptavidin Octet tips; also called Cynomolgus Monkey FLT3
B2: FLL134 (VHH)
VHH: QVQLQESGGGLVQPGGSLRLSCAASGGTFSSYATGWFRQVPGKEREFIAGISRNSGRTYAESVKGRFTISRDNAKNTVYLQMNTLRPDDTAVYYCAAARYFTRDAIYTSGDDYDYWGQGTQVTASS
notes: llama anti-FLT3 variable domain; E. coli periplasmic extract
B3: FLL553 (VHH)
VHH: QVQLQESGGGLVQAGGSLRLSCAVSGRTFSGFGTGWFRQAPGKEREFVAAISWSGGTTHYADSVKGRFTISRDNAKNTVNLVYLQMNSLRPEDTAVYYCAGQVARAYDSNWYSRGDYWGQGTQVTVSS
notes: as for B2
B4: FLL75 (VHH)
VHH: B3 VHH with S88D
notes: as for B2
B5: FLL40 (VHH)
VHH: B3 VHH with N80S, R90K, E92D, N110S, W118L
notes: as for B2
B6: FLL53 (VHH)
VHH: B3 VHH with G16D, I51V, W53Q, V79E, N80T, R90K, N110S, S113A
notes: as for B2
B7: FLL84 (VHH)
VHH: QVQLQESGGGLVQAGGSLMVSCAASGGTFSSYATGWFRQVPGKEREFIAGISRSGGRTYYAESVKGRFTISRDNAKNTVYLQMNTLKPDDTAVYYCAAARYFTTSVVYTSGDDYDYWGQGTQVTVSS
notes: as for B2
B8: FLL122 (VHH)
VHH: B7 VHH with F29W, F47L, T104S, D112N
notes: as for B2
B9: FLL67 (VHH)
VHH: B7 VHH with A14L, G16D
notes: as for B2
B10: FLL41 (VHH)
VHH: B7 VHH with A14L, G16D, K43R
notes: as for B2
B11: FLL71 (VHH)
VHH: B7 VHH with A14V, S54N, G55S, T104R, S105D, V106A
notes: as for B2
B12: FLL92 (VHH)
VHH: B7 VHH with F29W, F47L, P88S, T104S, D112N
notes: as for B2
B13: FLL102 (VHH)
VHH: B7 VHH with F29W, E46K, F47L, T104S, D112N
notes: as for B2
B14: FLL8 (VHH)
VHH: B7 VHH with A14V, S54N, G55S, T104R, S105D
notes: as for B2
B15: FLL153 (VHH)
VHH: B7 VHH with A14V, I51V, S54N, G55S, A92G, T104R, S105D, V106A
notes: as for B2
B16: FLL94 (VHH)
VHH: QVQLQESGGGLVQAGGSLRLSCAVSGRTFSGFGTGWFRQAPEKEREFVAAISWDGGRTHYADSVKGRFTISRDNAKNTVYLQMNSLKPEDTAIYYCAGQVARAYDTRWYSRGDYWGQGTQVTVSS
notes: as for B2
B17: FLL142 (VHH)
VHH: B16 VHH with E42G, S63F, I93V, G98A, T106S, R107K, R111G
notes: as for B2
B18: FLL188 (VHH)
VHH: B16 VHH with R19G, A40P, Y80F, I93V, G98A, T106S, R111G
notes: as for B2
B19: FLL168 (VHH)
VHH: B16 VHH with L11S, V24F, N84D, G98A, A101S, T106G, R111A, G112V, Q117R
notes: as for B2
B20: FLL99 (VHH)
VHH: B16 VHH with E42G, S63F, I93V, G98A, T106S, R111G
notes: as for B2
B21: FLL112 (VHH)
VHH: B16 VHH with E42G, D54A, A61E, S71H, I93V, G98A, A101S, T106G, R107I, R111G
notes: as for B2
B22: FLL170 (VHH)
VHH: B16 VHH with E42G, D54S, R57T, I93V, T106S, R107S
notes: as for B2
B23: FLL143 (VHH)
VHH: B16 VHH with E42G, D54V, I93V, G98A, T106G, R107N, R111G
notes: as for B2

Changes are numbered by the printed parent chain.

T4 sequence (chain, as listed by the source): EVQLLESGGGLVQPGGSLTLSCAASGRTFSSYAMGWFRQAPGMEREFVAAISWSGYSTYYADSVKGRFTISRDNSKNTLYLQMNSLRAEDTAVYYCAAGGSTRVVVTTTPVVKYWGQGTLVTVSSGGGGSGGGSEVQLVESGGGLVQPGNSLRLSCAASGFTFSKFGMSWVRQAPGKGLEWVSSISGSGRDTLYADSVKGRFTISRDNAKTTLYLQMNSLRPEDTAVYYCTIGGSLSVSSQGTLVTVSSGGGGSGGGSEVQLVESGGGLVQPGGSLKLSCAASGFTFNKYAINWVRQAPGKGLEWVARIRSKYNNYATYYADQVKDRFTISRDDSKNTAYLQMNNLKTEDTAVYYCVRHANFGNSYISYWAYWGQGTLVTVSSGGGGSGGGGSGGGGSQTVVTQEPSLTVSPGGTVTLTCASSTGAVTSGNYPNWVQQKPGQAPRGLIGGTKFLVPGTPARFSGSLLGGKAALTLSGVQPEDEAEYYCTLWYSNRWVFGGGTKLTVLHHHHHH
T5 sequence (chain, as listed by the source): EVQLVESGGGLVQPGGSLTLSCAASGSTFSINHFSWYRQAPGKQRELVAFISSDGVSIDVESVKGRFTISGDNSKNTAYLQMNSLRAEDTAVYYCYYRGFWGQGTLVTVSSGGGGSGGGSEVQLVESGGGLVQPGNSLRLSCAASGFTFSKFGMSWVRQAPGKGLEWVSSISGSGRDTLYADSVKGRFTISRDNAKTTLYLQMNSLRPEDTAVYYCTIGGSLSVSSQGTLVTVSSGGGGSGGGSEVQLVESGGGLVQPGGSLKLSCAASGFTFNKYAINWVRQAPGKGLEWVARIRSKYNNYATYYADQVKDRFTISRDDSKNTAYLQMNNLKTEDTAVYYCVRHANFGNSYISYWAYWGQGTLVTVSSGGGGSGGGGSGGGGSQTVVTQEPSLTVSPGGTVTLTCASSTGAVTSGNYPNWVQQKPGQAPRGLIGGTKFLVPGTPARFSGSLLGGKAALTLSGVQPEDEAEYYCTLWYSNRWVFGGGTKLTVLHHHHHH
T8 sequence (chain, as listed by the source): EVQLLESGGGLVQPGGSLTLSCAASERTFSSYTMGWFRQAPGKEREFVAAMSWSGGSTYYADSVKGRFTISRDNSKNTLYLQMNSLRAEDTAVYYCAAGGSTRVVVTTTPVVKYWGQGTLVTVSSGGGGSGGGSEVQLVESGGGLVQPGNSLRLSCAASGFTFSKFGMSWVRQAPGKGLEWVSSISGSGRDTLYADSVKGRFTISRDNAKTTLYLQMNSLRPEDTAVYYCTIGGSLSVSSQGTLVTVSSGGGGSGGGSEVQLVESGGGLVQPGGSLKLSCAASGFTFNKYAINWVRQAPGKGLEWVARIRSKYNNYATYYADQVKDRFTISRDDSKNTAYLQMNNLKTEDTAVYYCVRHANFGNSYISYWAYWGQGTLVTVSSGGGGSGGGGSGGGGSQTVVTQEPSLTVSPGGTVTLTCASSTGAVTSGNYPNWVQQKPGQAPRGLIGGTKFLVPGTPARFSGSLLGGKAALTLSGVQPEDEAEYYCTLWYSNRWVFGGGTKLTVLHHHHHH
T1 sequence (chain, as listed by the source): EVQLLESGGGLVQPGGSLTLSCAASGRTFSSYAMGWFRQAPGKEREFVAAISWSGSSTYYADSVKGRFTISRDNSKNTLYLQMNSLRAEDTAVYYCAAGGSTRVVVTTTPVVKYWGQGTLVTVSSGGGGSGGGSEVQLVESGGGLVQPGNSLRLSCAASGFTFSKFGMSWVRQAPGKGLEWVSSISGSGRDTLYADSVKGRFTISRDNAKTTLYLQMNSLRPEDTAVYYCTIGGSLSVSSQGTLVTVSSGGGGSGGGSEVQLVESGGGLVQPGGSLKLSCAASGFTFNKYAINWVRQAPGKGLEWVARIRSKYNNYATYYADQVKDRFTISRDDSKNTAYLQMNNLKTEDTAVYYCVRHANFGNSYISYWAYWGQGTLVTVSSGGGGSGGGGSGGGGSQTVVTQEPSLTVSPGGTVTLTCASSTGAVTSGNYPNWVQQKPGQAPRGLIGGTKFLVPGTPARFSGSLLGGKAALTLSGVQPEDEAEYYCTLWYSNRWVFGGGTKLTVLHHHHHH

The first assay concerns the target T1, anti-FLT3/anti-albumin/anti-CD3 multispecific protein containing humanized FLH78.
T1 construct: trispecific single-chain fusion with His6; purified from CHO conditioned medium
Description: BLI (Octet), biotinylated FLT3 on streptavidin tips. The method, then: (§1) The affinities of the purified multispecific proteins for human and cynomolgus FLT3 were measured with an Octet instrument with streptavidin tips were loaded with biotinylated human or cynomolgus FLT3 protein. The tips were then incubated with solutions containing 50, 16.7, 5.6, or 1.9 nM of the multispecific protein. Affinities (KD), listed in Table 7, were calculated by measuring the on rate and off rate of binding of anti-FLT3/anti-albumin/anti-CD3 multispecific proteins to the captured biotinylated FLT3 proteins.
In general terms: In BLI a coated tip is dipped into the sample, and binding shifts an interference pattern.
The molecule B1 displayed a Kd of 161 nM.

The target of a further assay is T2, anti-FLT3/anti-albumin/anti-CD3 multispecific protein containing humanized FLH92b.
T2 construct: trispecific single-chain fusion with His6; purified from CHO conditioned medium
T2 sequence (chain, as listed by the source): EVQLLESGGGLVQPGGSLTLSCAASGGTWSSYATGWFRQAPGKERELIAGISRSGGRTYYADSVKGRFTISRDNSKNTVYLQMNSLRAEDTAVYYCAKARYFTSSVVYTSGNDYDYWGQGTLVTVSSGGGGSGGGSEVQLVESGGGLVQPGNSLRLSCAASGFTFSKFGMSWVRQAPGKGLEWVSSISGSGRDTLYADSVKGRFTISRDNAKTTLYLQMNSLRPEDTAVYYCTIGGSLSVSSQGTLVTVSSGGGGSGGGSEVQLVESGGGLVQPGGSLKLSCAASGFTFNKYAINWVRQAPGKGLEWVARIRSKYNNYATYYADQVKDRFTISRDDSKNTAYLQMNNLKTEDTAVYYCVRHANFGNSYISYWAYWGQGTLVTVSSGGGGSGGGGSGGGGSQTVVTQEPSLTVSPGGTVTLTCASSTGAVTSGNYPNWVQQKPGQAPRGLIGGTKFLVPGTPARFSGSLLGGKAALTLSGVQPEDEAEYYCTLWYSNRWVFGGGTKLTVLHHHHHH
The description is as above. As for the experimental part: as §1
Turning to B1, the Kd worked out at 7.8 nM. This counts as single-digit nanomolar.

The target in another assay is T3, anti-FLT3/anti-albumin/anti-CD3 multispecific protein containing humanized FLH34.
T3 construct: trispecific single-chain fusion with His6; purified from CHO conditioned medium
T3 sequence (chain, as listed by the source): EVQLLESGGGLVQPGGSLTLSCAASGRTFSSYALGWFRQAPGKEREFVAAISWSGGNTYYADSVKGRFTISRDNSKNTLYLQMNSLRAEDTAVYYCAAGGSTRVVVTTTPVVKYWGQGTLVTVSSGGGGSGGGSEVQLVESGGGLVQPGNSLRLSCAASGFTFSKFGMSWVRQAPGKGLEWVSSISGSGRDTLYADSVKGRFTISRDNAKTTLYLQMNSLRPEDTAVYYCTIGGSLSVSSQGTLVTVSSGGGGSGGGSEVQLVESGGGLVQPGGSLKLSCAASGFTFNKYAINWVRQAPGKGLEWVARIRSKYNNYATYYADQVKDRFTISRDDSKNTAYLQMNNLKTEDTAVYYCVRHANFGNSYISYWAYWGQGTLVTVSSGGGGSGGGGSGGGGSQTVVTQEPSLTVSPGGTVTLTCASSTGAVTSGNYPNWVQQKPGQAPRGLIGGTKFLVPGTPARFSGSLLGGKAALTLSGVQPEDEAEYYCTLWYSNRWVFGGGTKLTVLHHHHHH
The assay is described as above. As for the experimental part:
as §1
As for B1, binding was characterised by a dissociation constant (Kd) of 19 nM.

The next assay addresses T4, anti-FLT3/anti-albumin/anti-CD3 multispecific protein containing humanized FLH141.
T4 construct: trispecific single-chain fusion with His6; purified from CHO conditioned medium
Described as above. As for the experimental part: as §1
On to B1, for which the dissociation constant (Kd) was 35 nM.

Another assay has as its target T5, anti-FLT3/anti-albumin/anti-CD3 multispecific protein containing humanized FLH19C.
T5 construct: trispecific single-chain fusion with His6; purified from CHO conditioned medium
The description is as above. As for the experimental part:
as §1
Molecule B1 displayed a Kd of 2.7 nM. This counts as single-digit nanomolar.

A further assay deals with T6, anti-FLT3/anti-albumin/anti-CD3 multispecific protein containing humanized FLH92a.
T6 construct: trispecific single-chain fusion with His6; purified from CHO conditioned medium
T6 sequence (chain, as listed by the source): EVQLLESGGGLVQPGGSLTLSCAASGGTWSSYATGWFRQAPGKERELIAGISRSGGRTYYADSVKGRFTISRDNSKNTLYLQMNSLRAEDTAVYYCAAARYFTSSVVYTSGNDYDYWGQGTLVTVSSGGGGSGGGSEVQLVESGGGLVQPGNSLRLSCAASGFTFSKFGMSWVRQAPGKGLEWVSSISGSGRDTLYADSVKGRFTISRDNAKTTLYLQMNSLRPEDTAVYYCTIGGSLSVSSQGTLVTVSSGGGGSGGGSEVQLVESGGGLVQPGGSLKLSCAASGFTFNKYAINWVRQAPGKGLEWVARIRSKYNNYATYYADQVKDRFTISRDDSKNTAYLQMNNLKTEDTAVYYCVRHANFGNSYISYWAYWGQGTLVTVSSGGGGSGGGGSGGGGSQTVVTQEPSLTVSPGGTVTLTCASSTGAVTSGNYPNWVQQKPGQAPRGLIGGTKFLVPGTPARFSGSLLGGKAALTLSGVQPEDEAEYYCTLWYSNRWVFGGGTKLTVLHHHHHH
Described as above. As for the experimental part: as §1
Take B1: the dissociation constant Kd was determined as 11.8 nM. In other words, the double-digit nanomolar range.

A further assay deals with T7, anti-FLT3/anti-albumin/anti-CD3 multispecific protein containing humanized FLH107.
T7 construct: trispecific single-chain fusion with His6; purified from CHO conditioned medium
T7 sequence (chain, as listed by the source): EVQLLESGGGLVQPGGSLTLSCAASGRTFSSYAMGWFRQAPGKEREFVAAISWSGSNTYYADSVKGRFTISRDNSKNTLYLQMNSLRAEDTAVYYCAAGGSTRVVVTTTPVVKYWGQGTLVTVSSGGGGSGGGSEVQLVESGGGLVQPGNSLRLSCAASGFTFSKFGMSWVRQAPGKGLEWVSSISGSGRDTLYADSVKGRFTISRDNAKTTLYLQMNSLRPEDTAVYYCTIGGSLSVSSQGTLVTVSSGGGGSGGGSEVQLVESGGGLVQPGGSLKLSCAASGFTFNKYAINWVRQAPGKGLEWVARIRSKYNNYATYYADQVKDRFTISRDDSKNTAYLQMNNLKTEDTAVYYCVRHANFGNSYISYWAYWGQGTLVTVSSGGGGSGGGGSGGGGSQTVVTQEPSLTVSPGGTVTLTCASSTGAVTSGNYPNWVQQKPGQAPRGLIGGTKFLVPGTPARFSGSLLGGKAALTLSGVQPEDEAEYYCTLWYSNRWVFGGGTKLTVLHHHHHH
Described as above. As for the experimental part: as §1
The molecule B1 displayed a Kd of 10 nM. This lies in the double-digit nanomolar range.

The next assay addresses T8, anti-FLT3/anti-albumin/anti-CD3 multispecific protein containing humanized FLH4.
T8 construct: trispecific single-chain fusion with His6; purified from CHO conditioned medium
The description is as above. As for the experimental part: as §1
For the molecule B1, the Kd was 214 nM. This counts as sub-micromolar.

The target of the next assay is T9, human FLT3 protein (human, UniProt P36888 27-541, limits assumed).
T9 construct: protein coated in the screening ELISA; also called ELISA FLT3
Put plainly: colorimetric ELISA, signal over control wells lacking FLT3. The source says:
(§2) Llamas were immunized with purified FLT3 protein expressed in Expi293 cells. A phage display library for expression of heavy variable antibody domains was constructed from circulating B cells isolated from the immunized llamas (See van der Linden, de Geus, Stok, Bos, van Wassenaar, Verrips, and Frenken. 2000. J Immunol Methods 240:185-195). Phage clones were screened for binding to FLT3 by expressing llama anti-FLT3 proteins in E. coli, preparing periplasmic extracts, and performing colorimetric ELISAs.
In general terms: In an ELISA, binding on a coated surface is turned into a signal by an enzyme label.
In turn, B2 yielded an FLT3/control of 15 ratio.

For the molecule B3, the FLT3/control amounted to 37 ratio.

The molecule B4 gave an FLT3/control of 19 ratio.

In turn, B5 came in with an FLT3/control of 21 ratio.

For B6, the FLT3/control came out at 17 ratio.

Regarding B7, the FLT3/control was determined as 4 ratio.

Regarding B8, the FLT3/control came out at 26 ratio.

The molecule B9 showed an FLT3/control of 12 ratio.

Take B10: the FLT3/control turned out to be 5 ratio.

On to B11, for which the FLT3/control is 9 ratio.

Molecule B12 registered an FLT3/control of 25 ratio.

B13 returned an FLT3/control of 37 ratio.

On to B14, for which the FLT3/control stood at 14 ratio.

Regarding B15, the FLT3/control came to 15 ratio.

In turn, B16 had an FLT3/control of 5 ratio.

B17: the FLT3/control was 15 ratio.

Molecule B18 had an FLT3/control of 51 ratio.

Regarding B19, the FLT3/control was found to be 28 ratio.

In turn, B20 yielded an FLT3/control of 13 ratio.

B21 returned an FLT3/control of 34 ratio.

Molecule B22 registered an FLT3/control of 38 ratio.

Molecule B23 had an FLT3/control of 47 ratio.

The target in the next assay is T10, anti-FLT3/anti-albumin/anti-CD3 multispecific protein containing FLL92.
T10 construct: trispecific single-chain fusion with His6; Expi293 conditioned medium
Description: BLI (Octet), conditioned medium, single 50 nM concentration (relative affinity). The method, then: (§3) Additional affinity determinations were performed using conditioned media from Example 2 with known concentrations of anti-FLT3/anti-CD3 multispecific proteins. […] An Octet instrument with streptavidin tips were loaded with biotinylated human or cynomolgus FLT3 protein, and KD values for binding FLT3 were calculated by measuring the on rate and off rate of binding of anti-FLT3/anti-CD3 multispecific proteins to the biotinylated FLT3 proteins.
Turning to B1, binding was characterised by a dissociation constant (Kd) of 2 nM.

In another assay the target is T11, anti-FLT3/anti-albumin/anti-CD3 multispecific protein containing FLL8.
T11 construct: trispecific single-chain fusion with His6; Expi293 conditioned medium
Described as above. As for the experimental part: as §3
The molecule B1 displayed a dissociation constant Kd of 18 nM.

The target in the next assay is T12, anti-FLT3/anti-albumin/anti-CD3 multispecific protein containing FLL41.
T12 construct: trispecific single-chain fusion with His6; Expi293 conditioned medium
T12 sequence (chain, as listed by the source): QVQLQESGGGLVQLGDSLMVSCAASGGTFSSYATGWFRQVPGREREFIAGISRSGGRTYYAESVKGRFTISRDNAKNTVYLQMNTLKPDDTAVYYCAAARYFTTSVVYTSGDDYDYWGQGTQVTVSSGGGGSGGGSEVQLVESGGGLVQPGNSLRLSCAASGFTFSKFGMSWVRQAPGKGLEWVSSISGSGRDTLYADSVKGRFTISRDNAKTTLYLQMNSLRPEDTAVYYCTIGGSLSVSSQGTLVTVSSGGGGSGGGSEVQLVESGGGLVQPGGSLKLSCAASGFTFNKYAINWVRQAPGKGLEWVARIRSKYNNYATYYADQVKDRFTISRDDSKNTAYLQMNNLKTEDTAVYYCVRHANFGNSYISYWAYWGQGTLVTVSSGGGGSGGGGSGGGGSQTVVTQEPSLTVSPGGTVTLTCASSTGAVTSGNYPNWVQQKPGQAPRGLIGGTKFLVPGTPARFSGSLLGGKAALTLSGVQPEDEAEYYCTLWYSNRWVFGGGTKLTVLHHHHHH
The assay is described as above. As for the experimental part:
as §3
For B1, the equilibrium dissociation constant (Kd) came to 34 nM. This counts as double-digit nanomolar.

The target in another assay is T13, anti-FLT3/anti-albumin/anti-CD3 multispecific protein containing FLL71.
T13 construct: trispecific single-chain fusion with His6; Expi293 conditioned medium
Described as above. As for the experimental part:
as §3
The molecule B1 yielded a dissociation constant (Kd) of 26 nM.

A further assay has as its target T14, anti-FLT3/anti-albumin/anti-CD3 multispecific protein containing FLL153.
T14 construct: trispecific single-chain fusion with His6; Expi293 conditioned medium
Described as above. As for the experimental part: as §3
Consider B1, for which the Kd came to 102 nM.

In another assay the target is T15, anti-FLT3/anti-albumin/anti-CD3 multispecific protein containing FLL134.
T15 construct: trispecific single-chain fusion with His6; Expi293 conditioned medium
The description is as above. The method, then: as §3
Molecule B1 registered a Kd of 24 nM.

The target in the next assay is T9, human FLT3 protein. Put plainly: colorimetric ELISA, periplasmic extract.
Source text: as §2
As to B2, the “ELISA FLT3 (absorbance)” value came to 1.3 absorbance.

On to B3, for which the “ELISA FLT3 (absorbance)” value came out at 3.7 absorbance.

For B4, the “ELISA FLT3 (absorbance)” value is 4 absorbance.

With B5, the “ELISA FLT3 (absorbance)” value was found to be 4 absorbance.

In the case of B6, the “ELISA FLT3 (absorbance)” value was 3.9 absorbance.

Take B7: the “ELISA FLT3 (absorbance)” value came to 1.3 absorbance.

For B8, the “ELISA FLT3 (absorbance)” value was 4 absorbance.

For the molecule B9, the “ELISA FLT3 (absorbance)” value was 2.7 absorbance.

For B10, the “ELISA FLT3 (absorbance)” value came out at 0.8 absorbance.

B11: the “ELISA FLT3 (absorbance)” value is 1.9 absorbance.

Consider B12, for which the “ELISA FLT3 (absorbance)” value was 4 absorbance.

B13: the “ELISA FLT3 (absorbance)” value was determined as 3.7 absorbance.

On to B14, for which the “ELISA FLT3 (absorbance)” value amounted to 3.3 absorbance.

Regarding B15, the “ELISA FLT3 (absorbance)” value came to 1.4 absorbance.

As to B16, the “ELISA FLT3 (absorbance)” value stood at 4 absorbance.

Turning to B17, the “ELISA FLT3 (absorbance)” value is 4 absorbance.

On to B18, for which the “ELISA FLT3 (absorbance)” value was found to be 4 absorbance.

B19: the “ELISA FLT3 (absorbance)” value was 4 absorbance.

For the molecule B20, the “ELISA FLT3 (absorbance)” value worked out at 3.7 absorbance.

As to B21, the “ELISA FLT3 (absorbance)” value is 3.6 absorbance.

As to B22, the “ELISA FLT3 (absorbance)” value was 4 absorbance.

In the case of B23, the “ELISA FLT3 (absorbance)” value came out at 4 absorbance.
